Experimental findings from patent US20250326813A1 (ELPIS BIOPHARMACEUTICALS, published 2025) are described below.

The target of assay [1] is T1, human IL2Rα Fc fusion protein (human, UniProt P01589 22-213, limits assumed).
T1 construct: also called CD25; not shown: Fc part
T1 sequence (looked up): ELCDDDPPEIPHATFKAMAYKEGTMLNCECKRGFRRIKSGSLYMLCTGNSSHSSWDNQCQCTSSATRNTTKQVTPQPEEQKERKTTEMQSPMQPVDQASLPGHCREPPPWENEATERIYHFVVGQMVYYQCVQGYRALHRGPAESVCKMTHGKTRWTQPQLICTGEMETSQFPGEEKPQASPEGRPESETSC
Description: ELISA on coated receptor-Fc, anti-His detection; grade by OD450 (medium: 0.7-1.5). On the procedure:
(§1) Mammalian cell-produced agonists were characterized for their binding activities to respective IL2Rβ and IL2Rα receptors by ELISA. Briefly, 384 well plate was immobilized with human IL2Rα and IL2Rβ Fc fusion proteins at a final concentration of 2 μg/mL in 1× PBS in total volume of 25 μL per well. The plate was incubated overnight at 4° C. and blocked with 80 μL of superblock per well for 1 hour. The purified clones were added to IL2Rα or IL-2Rβ wells in parallel in duplicates as a titration, with the highest concentration of 1 μM, followed by a 10 point 5× serial dilution of the clones. The binding activity was detected by adding 25 μL of anti-His HRP diluted at 1:5000 in 1× PBST. In between each step, the plate was washed three times with 1× PBST using a plate washer. The plate was then developed with 25 μL of TMB substrate for five minutes and stopped by adding 25 μL of 2N sulfuric acid. The plate was read at OD450 nm Biotek plate reader and the bar graph at 1 μM of IL2 was generated with Prism 8.1 software (FIG. 2).
On the technique in general: An ELISA detects its analyte on a solid surface through an enzyme-linked reagent.

In assay [2] the target is T2, human IL2Rβ Fc fusion protein (human, UniProt P14784 27-239).
T2 construct: also called ILR2β; CD122; not shown: Fc part
T2 sequence (looked up): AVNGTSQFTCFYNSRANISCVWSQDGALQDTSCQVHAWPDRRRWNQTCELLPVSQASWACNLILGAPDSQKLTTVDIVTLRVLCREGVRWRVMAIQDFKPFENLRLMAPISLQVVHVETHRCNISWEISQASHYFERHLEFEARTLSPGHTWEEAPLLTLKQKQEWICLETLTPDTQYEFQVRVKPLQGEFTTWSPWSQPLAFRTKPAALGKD
The assay is described as above. On the procedure: as §1

Assay [3] concerns the target T1, human IL2Rα Fc fusion protein. The assay can be described thus: SPR (Biacore T200), receptor captured on Protein A chip, IL2 at 100 nM and 20 nM. On the procedure:
(§2) The assay was run with Biacore T200 control software version 2.0. For each cycle, 1 μg/mL of human IL2Rβ or IL2Rα was captured for 60 seconds at flow rate of 10 μL/min on flow cell 2 in 1× HBSP buffer on Protein A sensor chip. 100 nM and 20 nM of HIS tag purified engineered IL2 mutant was injected onto both reference flow cell 1 and IL2Rβ or IL2Rα captured flow cell 2 for 150 seconds at flow rate of 30 μL/min followed by washing for 300 seconds. The flow cells were then regenerated with Glycine pH 2 for 60 seconds at a flow rate of 30 μL/mins. The kinetics data was analyzed with Biacore T200 evaluation software 3000. The specific binding response unit was derived from subtraction of binding to reference flow cell 1 from target flow cell 2.
(In general: In SPR one partner is held on a chip, and binding of the other changes the refractive index at the surface.)

The target is the same in assay [4]. Description: ELISA, single concentration, anti-flag detection, E. coli-produced clone. On the procedure: (§3) Supernatants containing engineered IL2 mutants were assessed with sandwich ELISA assay to screen for IL2Rα binding. Briefly, 96-well plate was immobilized with human Fc and human IL2Rα, respectively, at a final concentration of 2 μg/mL in 1× PBS in total volume of 50 μL per well. The plate was incubated overnight at 4° C. followed by blocking with 200 μL of superblock per well for 1 hour. 100 μl of supernatant was added to both Fc and IL2Rα immobilized wells and incubated for 1 hour with shaking. The engineered IL2 mutant binding was detected by adding 50 μL of anti-Flag HRP diluted at 1:5000 in 1× PBST. In between each step, the plate was washed three times with 1× PBST in a plate washer. The plate was then developed with 50 μL of TMB substrate for five minutes and stopped by adding 50 μL of 2N sulfuric acid. The plate was read at OD450 nm using a Biotek plate reader and the binding and selectivity was analyzed.
as §3, with “Single clones were next screened for IL2Rβ binding. IL2Rβ binding screening ELISA was developed for the identification of individual” for “Supernatants containing”, “mutant.” for “mutants were assessed with sandwich ELISA assay to screen for IL2Rα binding.”, “IL2Rβ,” for “IL2Rα,”, “IL2Rβ” for “IL2Rα”
(§4) To further triage, the engineered IL2 clones with unique sequences were produced in E. coli. In short, the glycerol stock of each engineered agonist clone was inoculated into TB medium for overnight growth. The next day, cells from the overnight culture were inoculated into TB medium and grown to a cell density of OD₆₀₀ between 0.6-0.8. IPTG was added to a final concentration of 1 mM to induce the expression during culture at 30° C. overnight. The supernatant was collected by centrifugation.

The target of assay [5] is T2, human IL2Rβ Fc fusion protein. The description is as above. The protocol:
as §3
as §3, with “Single clones were next screened for IL2Rβ binding. IL2Rβ binding screening ELISA was developed for the identification of individual” for “Supernatants containing”, “mutant.” for “mutants were assessed with sandwich ELISA assay to screen for IL2Rα binding.”, “IL2Rβ,” for “IL2Rα,”, “IL2Rβ” for “IL2Rα”
as §4

For assay [6] the target is unchanged. The assay can be described thus: SPR (Biacore T200), receptor captured on Protein A chip. On the procedure:
as §2

Assay [7] shares this target. The assay can be described thus: SPR (Biacore T200), receptor captured on Protein A chip, IL2 at 100 nM and 20 nM. The protocol: as §2
For assay [8] the target is unchanged. The assay can be described thus: ELISA: human IL2Rβ Fc fusion coated at 2 µg/mL, purified His-tagged IL2 titrated from 1 µM in 5x steps, anti-His HRP, OD450. The protocol: as §1
For assay [9] the target is unchanged. The assay can be described thus: ELISA on coated receptor-Fc, anti-His detection, single point 1 µM. The protocol:
Back-mutations were characterized for their binding activities to IL2Rβ and IL2Rα receptors by ELISA. Briefly, 384 well plate was immobilized with human IL2Rα and IL2Rβ Fc fusion proteins at a final concentration of 2 μg/mL in 1× PBS in total volume of 25 μL per well. The plate was incubated overnight at 4° C. and blocked with 80 μL of superblock per well for 1 hour. […] The IL2 mutant binding was detected by adding 25 μL of anti-His HRP diluted at 1:5000 in 1× PBST. In between each step, the plate was washed three times with 1× PBST using a plate washer. […] The plate was then developed with 25 μL of TMB substrate for five minutes and stopped by adding 25 μl of 2N sulfuric acid. The plate was read at OD450 nm Biotek plate reader (Table 6) and the data was analyzed with Prism 8.1 software to generate bar graph (FIG. 5).

B1: EP565, mammalian cell-produced, with F35L, R38D and F42R (ligand)
chain: APASSSTKKTQLQLEHLLLDLQMILNGINNYKNPLLTDMLTRKFYMPKKATELKHLQCLEEELKPLEEVLNLAQSKNFHLRSRQLISNMNGIILKLKGSETTFMCEYADETATIVEFLNRWITFSQSIISTLT
notes: His-Flag tag not in the parts; also called 2021EP22-F10
Turning to B1, the OD450 in assay [1] and in assay [2] was 0.7 to 1.5 od each time.

B2: EP567 (clone 2021EP21-C04), E. coli-produced (ligand)
chain: APASSSTKKTQLQLEHLLLDLQMILNGINNYKNPKLTRMLTFKFYMPKKATELKHLQCLEEELKPLEEVLNLAQSKNFHLSLREPIGNIVTSVRELKGSETTFMCEYADETATIVEFLNRWITFSQSIISTLT
What is called Kd is a measure of binding affinity in units of concentration. Low readings indicate tighter binding, high ones weaker binding. For B2, binding in assay [3] was characterised by a dissociation constant (Kd) of 188 nM. The OD450 nm in [4] was found to be 0.05 OD450; in assay [5] it was 0.068 OD450. In addition, the binding result in assay [6] is “no binding (tested: Rmax < 5RU; 100 nM and 20 nM)”.

B3: EP568 (clone 2021EP16-H06), E. coli-produced (ligand)
chain: APASSSTKKTQLQLEHLLLDLQMILNGINNYKNPKLTRMLTFKFYMPKKATELKHLQCLEEELKPLEEVLNLAQSKNFHLLAKRTVSNMYVRVEELKGSETTFMCEYADETATIVEFLNRWITFSQSIISTLT
For the molecule B3, the OD450 nm worked out at 1.25 OD450 in [4] and 0.105 OD450 in assay [5]. The binding result in [6] was “no binding (tested: Rmax < 5RU; 100 nM and 20 nM)”.

B4: EP596, IL2Rβ enhanced binding agonist (ligand)
chain: APASSSTKKTQLQLEHLLLDLQMILNGINNYKNPLLTDMLTRKFYMPKKATELKHLQCLEEELKPLEEVLNLAQSKNFHLTARDAIDNINVIVQELKGSETTFMCEYADETATIVEFLNRWITFSQSIISTLT
notes: Control in SPR and ELISA
By EC50 (read off the curve) is commonly meant the concentration that produces a half-maximal response. High values mean a need for much substance, low ones an effect from little substance. B4 gave a Kd in assay [7] of 1.03 nM. The “EC50 (read off the curve)” value in assay [8] is roughly 1 nM. In assay [9], the “Average OD (450 nm)” value turned out to be 1.63 OD450.
